In patent US20220031841A1 (ABSCI, published 2022):

T1: O-linked N-acetylglucosamine (GlcNAc) transferase (OGT) (human, UniProt O15294 2-1046)
T1 construct: The array carries full-length recombinant human proteins expressed in S. cerevisiae; also called Human OGT
T1 sequence: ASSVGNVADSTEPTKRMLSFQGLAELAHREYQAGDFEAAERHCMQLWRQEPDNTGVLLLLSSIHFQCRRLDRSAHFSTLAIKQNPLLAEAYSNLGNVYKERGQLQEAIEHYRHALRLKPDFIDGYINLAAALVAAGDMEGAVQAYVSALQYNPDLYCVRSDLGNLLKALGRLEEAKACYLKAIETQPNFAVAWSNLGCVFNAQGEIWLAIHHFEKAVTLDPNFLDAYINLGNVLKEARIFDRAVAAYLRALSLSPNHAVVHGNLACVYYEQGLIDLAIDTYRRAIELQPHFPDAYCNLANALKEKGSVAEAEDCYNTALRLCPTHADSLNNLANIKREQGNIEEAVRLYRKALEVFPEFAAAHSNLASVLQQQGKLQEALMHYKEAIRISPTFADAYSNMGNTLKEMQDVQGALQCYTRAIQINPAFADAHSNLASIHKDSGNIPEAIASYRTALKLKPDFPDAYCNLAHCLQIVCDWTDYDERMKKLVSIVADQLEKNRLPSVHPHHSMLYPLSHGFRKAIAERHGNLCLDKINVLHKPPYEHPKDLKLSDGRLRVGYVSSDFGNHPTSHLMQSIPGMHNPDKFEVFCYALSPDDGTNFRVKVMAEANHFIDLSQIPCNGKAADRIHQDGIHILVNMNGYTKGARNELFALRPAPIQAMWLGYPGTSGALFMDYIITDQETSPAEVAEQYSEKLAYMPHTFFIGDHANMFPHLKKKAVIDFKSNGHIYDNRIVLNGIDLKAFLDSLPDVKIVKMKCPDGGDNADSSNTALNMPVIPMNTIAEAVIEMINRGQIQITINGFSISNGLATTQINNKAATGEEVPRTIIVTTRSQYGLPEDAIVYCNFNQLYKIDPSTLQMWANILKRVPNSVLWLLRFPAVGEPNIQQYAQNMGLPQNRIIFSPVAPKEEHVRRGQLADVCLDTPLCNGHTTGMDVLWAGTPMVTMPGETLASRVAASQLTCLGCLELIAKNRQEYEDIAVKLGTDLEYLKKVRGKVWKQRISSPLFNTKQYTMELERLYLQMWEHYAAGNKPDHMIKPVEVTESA


How the values were obtained:
[1] = molecular target: T2, Cancer/testis antigen 1 (CTAG1A) (human, UniProt P78358 1-180); assay: HuProt protein array, F635 z-score
T2 construct: The array carries full-length recombinant human proteins expressed in S. cerevisiae; also called NY-ESO-1; Cancer/Testis Antigen 1A
T2 sequence (P78358 whole entry): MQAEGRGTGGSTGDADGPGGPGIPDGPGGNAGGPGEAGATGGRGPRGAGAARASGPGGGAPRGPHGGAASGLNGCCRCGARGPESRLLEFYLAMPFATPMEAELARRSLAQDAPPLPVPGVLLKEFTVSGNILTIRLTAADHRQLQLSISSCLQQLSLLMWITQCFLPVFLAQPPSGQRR
Summary of the method: (§1)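 Antibodies probed at 1 μg/ml on native arrays of yeast-expressed full-length human proteins printed in duplicate, 1 h at room temperature. Detected with Alexa-647 anti-human IgG Fc secondary; value is mean z-score of duplicate spots.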

[2] = molecular target: T3, Alpha-taxilin (TXLNA) also known as interleukin-14A (human, UniProt P40222 1-546); assay: HuProt protein array, F635 z-score
T3 construct: The array carries full-length recombinant human proteins expressed in S. cerevisiae; also called IL-14A; TXLNA/IL-14A
T3 sequence (P40222 whole entry): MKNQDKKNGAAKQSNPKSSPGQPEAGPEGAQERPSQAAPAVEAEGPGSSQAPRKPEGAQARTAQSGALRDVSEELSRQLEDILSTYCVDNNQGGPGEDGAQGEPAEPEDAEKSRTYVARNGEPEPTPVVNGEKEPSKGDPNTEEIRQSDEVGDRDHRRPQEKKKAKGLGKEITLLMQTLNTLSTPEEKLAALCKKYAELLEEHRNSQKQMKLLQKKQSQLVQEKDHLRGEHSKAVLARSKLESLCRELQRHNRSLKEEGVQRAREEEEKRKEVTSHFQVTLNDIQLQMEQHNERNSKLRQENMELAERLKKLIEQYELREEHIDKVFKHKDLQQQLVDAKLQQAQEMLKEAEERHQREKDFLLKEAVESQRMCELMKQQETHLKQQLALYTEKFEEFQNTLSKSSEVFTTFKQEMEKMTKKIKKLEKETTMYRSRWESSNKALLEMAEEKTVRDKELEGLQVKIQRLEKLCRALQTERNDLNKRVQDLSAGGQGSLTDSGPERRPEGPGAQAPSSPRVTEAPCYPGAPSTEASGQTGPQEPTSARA
Summary of the method: as §1

[3] = molecular target: T1, O-linked N-acetylglucosamine (GlcNAc) …; assay: HuProt protein array, F635 z-score
Summary of the method: as §1

[4] = molecular target: T3, Alpha-taxilin (TXLNA) also known as …; assay: HuProt protein array, antibody at 1 µg/ml, Alexa-647 anti-human IgG Fc; F635 signal as z-score; TXLNA replicate 1
Text: (§2) Large scale protein arrays are versatile and sensitive platforms for antibody specificity evaluation. They can be used for the evaluation of protein binding or affinity reagents that are widely employed in research and clinical applications. The microarray used in our target identification experiment provides the largest number of unique, full-length, individually purified human proteins on a single microscope slide. This allows thousands of interactions to be profiled in a high-throughput manner. The hill-length recombinant proteins are expressed in the yeast S. cerevisiae, purified, and printed on glass slides in duplicate along with a set of control proteins (GST, BSA, histones, IgG, etc.). Such microarray is not restricted to a particular type of surface coating, although the default is glass coated with ultra-thin nitrocellulose film for the non-covalent, yet irreversible, capture of active proteins to the surface. Fourteen Protein arrays were used for the antibody cross-reactivity assay of the samples. […] The antibody-antigen binding score was calculated for each protein represented on the array and expressed as z-scores. […]
(§3) Z score is the average Z score of the duplicate spots of a given protein (each protein is printed in duplicate on a HuProt™ array). The Z score of each spot on a given array is calculated according to the equation: […]

[5] = molecular target: T1, O-linked N-acetylglucosamine (GlcNAc) …; assay: HuProt protein array, antibody at 1 µg/ml, Alexa-647 anti-human IgG Fc; F635 signal as z-score; OGT replicate 1
Text: as §2, §3

[6] = molecular target: T4, Kinesin light chain 4 protein (KLC4) (human, UniProt Q9NSK0 2-619); assay: HuProt protein array, F635 z-score
T4 construct: The array carries full-length recombinant human proteins expressed in S. cerevisiae; also called Human KLC4
T4 sequence (Q9NSK0 2-619 limits assumed): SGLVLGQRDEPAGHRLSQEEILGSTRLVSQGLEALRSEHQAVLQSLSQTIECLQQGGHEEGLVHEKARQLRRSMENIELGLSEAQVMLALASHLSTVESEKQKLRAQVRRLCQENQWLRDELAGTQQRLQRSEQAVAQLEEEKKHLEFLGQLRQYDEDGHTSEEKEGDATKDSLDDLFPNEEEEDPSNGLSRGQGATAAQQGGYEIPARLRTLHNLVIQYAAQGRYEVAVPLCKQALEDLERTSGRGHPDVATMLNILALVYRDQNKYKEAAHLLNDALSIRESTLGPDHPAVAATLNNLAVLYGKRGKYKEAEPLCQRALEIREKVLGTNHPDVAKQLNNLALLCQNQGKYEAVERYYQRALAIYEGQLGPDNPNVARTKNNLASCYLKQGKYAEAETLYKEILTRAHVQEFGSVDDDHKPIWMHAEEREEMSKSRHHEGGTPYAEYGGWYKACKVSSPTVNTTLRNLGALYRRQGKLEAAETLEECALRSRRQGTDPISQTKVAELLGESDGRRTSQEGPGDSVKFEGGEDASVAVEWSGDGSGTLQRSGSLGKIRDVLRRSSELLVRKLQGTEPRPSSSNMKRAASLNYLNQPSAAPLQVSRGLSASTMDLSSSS
Summary of the method: as §1

[7] = molecular target: T5, Melanoma-associated antigen 3 (MAGE-A3) (human, UniProt P43357 1-314); assay: HuProt protein array, antibody at 1 µg/ml, Alexa-647 anti-human IgG Fc; F635 signal as z-score; MAGEA3 replicate 1
T5 construct: The array carries full-length recombinant human proteins expressed in S. cerevisiae; also called Human MAGE-A3
T5 sequence (P43357 whole entry): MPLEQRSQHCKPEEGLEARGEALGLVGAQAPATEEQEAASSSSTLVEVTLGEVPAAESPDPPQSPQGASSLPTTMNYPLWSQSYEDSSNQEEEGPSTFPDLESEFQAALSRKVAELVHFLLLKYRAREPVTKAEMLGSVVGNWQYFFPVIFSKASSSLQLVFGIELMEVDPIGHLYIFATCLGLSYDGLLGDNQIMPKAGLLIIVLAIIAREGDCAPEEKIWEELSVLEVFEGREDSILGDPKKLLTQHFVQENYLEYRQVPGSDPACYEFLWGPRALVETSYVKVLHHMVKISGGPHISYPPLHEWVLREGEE
Text: as §2, §3

[8] = molecular target: T4, Kinesin light chain 4 protein (KLC4); assay: HuProt protein array, antibody at 1 µg/ml, Alexa-647 anti-human IgG Fc; F635 signal as z-score; KLC4 replicate 1
Text: as §2, §3

Binder	binding result [1]	binding result [2]	binding result [3]	binding result [4]	binding result [5]	binding result [6]	binding result [7]	binding result [8]
TMEL1010 (antibody, V domains shown, It was detected with an anti-human IgG Fc gamma secondary antibody) VH: QVQLVQSGAEVKKPGASVKVSCKASGYTFSSYGISWVRQAPGQGLEWMGWISAYNGNTNYAKKLQGRVTMTTDTSTSTAYLELRSLRSDDTAVYYCARGDGPFDYWGQGTLVTVSS VL: EIVMTQSPATLSVSPGERATLSCWASQSVSSSLAWYQQKPGQAPRLLMYGASNRATGIPARFSGSGSGTEFTLTISSLQSEDFAVYYCQQYNKWPPDTFGQGTKLEIKR	no binding (tested: 1 µg/ml)	no binding (tested: 1 µg/ml)	no binding (tested: 1 µg/ml)					
TMEL1011 (antibody, V domains shown, It was detected with an anti-human IgG Fc gamma secondary antibody) VH: PVQLVQSGAEVKKPGSSVKVSCKASGGTFSSYSFNWVRQAPGQGLEWMARIIPILGLANYAQKFQGRVTLTADESTSTAYMELSSLRSEDTAIFYCAGMVLGQLGFDPWGQGTLVTVSS VL: QFMLTQPHSVSESPGRTVTISCTRSSGSIARNYVHWYQHRPGSSPTTVIYEDDQRPSGVPDRFSGSIDSSSNSASLTISGLKPEDEADYFCQSYDSNIWVFGGGTKLTVLG	no binding (tested: 1 µg/ml)		no binding (tested: 1 µg/ml)	binds				
TMEL1014 (antibody, V domains shown, It was detected with an anti-human IgG Fc gamma secondary antibody) VH: SVQLVESGGGVVQPGRSLRLSCAASGFTFSSYTMHWVRQAPGKGLEWVALISYDGSNKYYADSVKGRFTISRDNPKNTLYLQMNSLRVEDTAVYYCARDWTLGYWGQGTLVTVSS VL: VSSELTQDPAVSVALGQTVRITCQGDSLRNYYANWYQQKPGQAPILVIYDKNNRPSGIPDRFSGSSSGNTASLTITGAQAEDEADYYCNSRDSSGYHLVFGGGTKLTVLG	no binding (tested: 1 µg/ml)	no binding (tested: 1 µg/ml)			binds			
TMEL1008 (antibody, V domains shown, It was detected with an anti-human IgG Fc gamma secondary antibody) VH: QVQLVQSGAEVKKPGSSVKVSCKASGGTFNRDGIIWVRQAPGQGLEWMGRIIPILGIANYAQKFQGRVTIIADKSTSTAYMELSSLRSEDTAVYYCARESEVGRGMDVWGQGTTVTVSS VL: ASALTQPASVSGSPGQSITISCTGTSSDVGDYNYVSWYQQHPGKAPKLMIYDVSNRPSGVSHRFSGSKSGNTASLTISGLQAEDEADYYCSSYTISSTLGVFGPGTKVTVLG	no binding (tested: 1 µg/ml)	no binding (tested: 1 µg/ml)	no binding (tested: 1 µg/ml)				binds	

The next lines start with the values.

binding result [1]	binding result [2]	binding result [3]	binding result [4]	binding result [5]	binding result [6]	binding result [7]	binding result [8]	Binder
no binding (tested: 1 µg/ml)	no binding (tested: 1 µg/ml)	no binding (tested: 1 µg/ml)						TMEL1009 (antibody, V domains shown) VH: PVQLVQSGAEVKKPGSSVKVSCRASGGTFSNYGLNWVRQAPGQGLEWMGGIIPIFGSVNYAQKFQDRVTITADESTSTTYMDLNSLRSEDTAVYYCATERGHNMERAFDFWGQGTLVTVSS VL: not shown
no binding (tested: 1 µg/ml)	no binding (tested: 1 µg/ml)	no binding (tested: 1 µg/ml)						TMEL1012 (antibody, V domains shown) VH: PLQLQESGPGLVKPSETLSLTCTVSGDSITTTYYWGWIRQPPGKGLEWIASIYFTGSTFHNPSLKSRVTMSVDTSKNQFSLNLSSVTAADTAVYYCARRVGNWNYVWFDPWGQGTLVSVSS VL: AYVLTQPPSVSVAPGQTARMTCGGNNIGSKSVHWYRQRPGQAPVLVVYDDTDRPSGIPERFSGSNSGNTATLTISRVEAGDEADYYCQVWDTNSDHVVFGGGTKLTVLG
no binding (tested: 1 µg/ml)	no binding (tested: 1 µg/ml)	no binding (tested: 1 µg/ml)						TMEL1002 (antibody, V domains shown) VH: not shown VL: ASALTQPASVSGSPGQSITISCTGTSSDVGDYNYVSWYQQHPGKAPKLMIYDVSNRPSGVSNRFSGSKSGNTASLTISGLQAEDEADYYCSSYTSSSTLVFGGGTKLTVLG
no binding (tested: 1 µg/ml)	no binding (tested: 1 µg/ml)	no binding (tested: 1 µg/ml)			no binding (tested: 1 µg/ml)			TMEL1013 (antibody, V domains shown) VH: PVQLVQSGAEVKKPGSSVKVSCKASGGTFSSYTINWVRQAPGQGLEWMGRIIPILGVANYAQKFQGRVTITADKSTSTAYMDLSSLRSEDTAVYYCAREWERAFDYWGQGTLVTVSS VL: not shown
no binding (tested: 1 µg/ml)	no binding (tested: 1 µg/ml)	no binding (tested: 1 µg/ml)					binds	TMEL1007 (antibody, V domains shown, It was detected with an anti-human IgG Fc gamma secondary antibody) VH: HVHLVQSGAEVKKPGSSVKVSCTASGGSFSSNPISWVRQAPGHGLQWMGGFVPLFGTANYAPSFHGRLTITADESTSTTYMELNSLRSEDSAVYYCARDFNWNFDFWGQGTLVTVSS VL: QSALTQPASVSGSPGQSITISCTGTSSDIGSYNLVSWYRQYPGKAPKLMIYEVNKRPSGVSNRFSGSKSGNTASLTISGLQAEDEADYYCCSYAGTTTFVIFGRGTKLTVLG
no binding (tested: 1 µg/ml)	no binding (tested: 1 µg/ml)	no binding (tested: 1 µg/ml)						TMEL1004 (antibody, V domains shown) VH: QITLKESGPTLVKPTQTLTLTCTFSGFSLNTPGVGVGWIRQPPGKALEWLALIYWDDDKRYRPSLESRLTITKDTSKNHVVLTMTNMDPVDTATYFCAHKNLQYSEWFDPWGQGTLVIVSS VL: EMVLTQSPATLSLSPGERATLSCRASQSVSRNSLAWYQQRPGQTPRLLIYGASSRATGIPDRFSGSGSGTDFTLIISRLEPEDFAVYFCLQYDESPYTFGQGAKLEIKR
